Data set [1] in a line: folding stability dG unfold from trypsin proteolysis; higher = more stable. In outline: (§1)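 K50 was inferred by Bayesian fitting of sequencing counts obtained after protease digestion of designed mini-proteins. Unfolding free energy was derived by comparison with a sequence-predicted unfolded-state K50 and a shared folded-state K50, for each protease or both combined. The mini-proteins were under 80 residues, had no cysteine, were carried in a PA-tagged cDNA display construct, and were kept only if AlphaFold2 dimer inter-PAE exceeded 15.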

Data set [2] in a line: folding stability dG unfold from chymotrypsin proteolysis; higher = more stable. In outline:
as §1

Data set [3] can be described thus: folding stability dG unfold (combined trypsin and chymotrypsin); higher = more stable. In short, it runs like this:
as §1

± gives the half width of the 95% confidence interval.

Regarding “SAGGAPTVELKTETIETEDGTYLVVEAKVPTPDVTLEIKLPHGGETEVVYDPETGTATVVFRLPPDWLSAGG [r13_380_TrMRF]”, the entries for the “folding stability dG unfold” value in data set [1], in data set [2] and in data set [3] were 1.72 ± 0.088 kcal/mol, 2.51 ± 0.053 kcal/mol and 2.25 ± 0.15 kcal/mol, respectively.
As for “SAGGAPVTVREEELPENSKLITIEYPDGLTLEVLEYPDKVLVREWDTATGKELSSRTLTHEELEKLLSAGGS [r8_476_JUSTAS]”, the “folding stability dG unfold” value in data set [1] was 1.81 ± 0.052 kcal/mol; in data set [2], 2.41 ± 0.034 kcal/mol; in data set [3] it was 2.19 ± 0.14 kcal/mol.
“SAGGARFEFTTPEGDRVTVELETTADELRVRVTVHRENEPFTLEATFPLPPPAPPAVPADVPGPSLLLSAGG [r13_691_TrMRF]”: the figures for the “folding stability dG unfold” value in data set [1], in data set [2] and in data set [3] were 2.06 ± 0.15 kcal/mol, 1.62 ± 0.089 kcal/mol and 1.91 ± 0.21 kcal/mol, respectively.
Take “SAGGASLDDLPLEGIEVLEEEVIPLPNGSTLRKFLVKKPSPGPPELLVEVTEFVDEGSSSVSVTPLGSAGGS [r16_469_JUSTAS]”: the “folding stability dG unfold” value in data set [1] is 0.179 ± 0.054 kcal/mol; in data set [2], -0.301 ± 0.45 kcal/mol; in data set [3], 0.0997 ± 0.14 kcal/mol.
For “SAGGASTVEYEITLPLDPSGSVDPDTIRAAAEAIAAADPDFVDHRIEEITITRLPDGTVRFTVTISVPSAGG [r13_462_JUSTAS]” the same measures were 2.66 ± 0.11 kcal/mol, 2.46 ± 0.049 kcal/mol and 2.53 ± 0.092 kcal/mol.
For “SAGGDEIVERVRQLFEDLGFPVEIVDDDAPDGVLRVRISPEAVEKLGPLVINLPFPDIKEVRTELLPSAGGS [r8_318_TrMRF]” the same measures were 0.968 ± 0.013 kcal/mol, 1.5 ± 0.015 kcal/mol and 1.26 ± 0.025 kcal/mol.
Turning to “SAGGDGPPKFEPISIPIGDGVIKIWRSPNGSIHLEIMPPGGKPVASKEYPFPDGRKLKLDIQVKPPEDSAGG [r13_584_TrROS]”, the entries for the “folding stability dG unfold” value in data set [1], in data set [2] and in data set [3] were 0.394 ± 0.13 kcal/mol, 0.252 ± 0.18 kcal/mol and 0.466 ± 0.14 kcal/mol, respectively.
Consider “SAGGDITITKNPENDYYTITLPLPNSNSTAVAFLDPKTGTAVVINPDNPLVLVLEPNGTLKEVKLLPPSAGG [r13_101_TrMRF]”, for which the “folding stability dG unfold” value turned out to be 1.04 ± 0.05 kcal/mol in data set [1], 0.566 ± 0.2 kcal/mol in data set [2] and 0.902 ± 0.15 kcal/mol in data set [3].
The matching figures for “SAGGDKKWTAEFDVRKRDDTVEVTLTFTDPNGNETTETYTLTDDELAKLLAELPPEFKNVTRNEVLESAGGS [r16_298_JUSTAS]”: 1.57 ± 0.043 kcal/mol, 2.04 ± 0.11 kcal/mol and 1.85 ± 0.16 kcal/mol.
For “SAGGDKNAKPIKPITISFTLEDGSKKTITATFYKDAVIVEITYINPKTGKPFTKTFVFKKKGVKLLLSAGGS [r16_419_TrMRF]” the same measures were 2.43 ± 0.096 kcal/mol, 3.19 ± 0.094 kcal/mol and 3.02 ± 0.21 kcal/mol.
For “SAGGDLKIEIEPYRMGDYPMYEVKIEDPDGKDITLWMNSNNGQMMVFYPNGKPRRVDSAEDVLEALKSAGGS [r8_168_TrROS]” the same measures were -0.243 ± 0.16 kcal/mol, 0.185 ± 0.16 kcal/mol and 0.149 ± 0.1 kcal/mol.
Consider “SAGGDNFKIEIQFFPDGHIFILIKWPNGDWILIPVPIEYPVPKRDPDGEVKEPGPVTHTHLFLIPANDSAGG [r13_236_TrROS]”, for which the “folding stability dG unfold” value worked out at 1.88 ± 0.097 kcal/mol in data set [1], 3.21 ± 0.046 kcal/mol in data set [2] and 2.74 ± 0.16 kcal/mol in data set [3].
As to “SAGGDNKPKVYPITFMIPPDDIKPGDEIPIDEIADNLGIPPNYTIKIKEVQPNPEDGYYMYRIEIVWSAGGS [r16_165_TrROS]”, the “folding stability dG unfold” value in data set [1] is 1.57 ± 0.041 kcal/mol; in data set [2] it was 1.68 ± 0.085 kcal/mol; in data set [3] it was 1.65 ± 0.073 kcal/mol.
Consider “SAGGDNVRPIKFEFKDGVKKSIYRSEDMIYINVEFYYDGRPLYRHSIEIPNIPPGDDAEIKFKIPPGSAGGS [r8_155_TrROS]”, for which the “folding stability dG unfold” value in data set [1] worked out at 0.372 ± 0.18 kcal/mol; in data set [2], 1.55 ± 0.22 kcal/mol; in data set [3] it was 1.24 ± 0.21 kcal/mol.
Consider “SAGGDPIEDIVKEIAEEHGYPIKNVEVEPVDPNTLVVEVQMPNGYRIKIEIPYDPDGDLNINVEWEPSAGGS [r8_284_TrROS]”, for which the “folding stability dG unfold” value in data set [1] was found to be 1.13 ± 0.11 kcal/mol; in data set [2] it was 2.04 ± 0.045 kcal/mol; in data set [3], 1.65 ± 0.23 kcal/mol.
For the sequence “SAGGDPNTARVVVLTGHPDVITPEQIRTLLENLGADEIKSVEVFTTPTSRVVRFVDSNGAPTVIFVPSAGGS [r8_86_TrMRF]”, the entries for the “folding stability dG unfold” value in data set [1], in data set [2] and in data set [3] were 1.8 ± 0.038 kcal/mol, 1.99 ± 0.032 kcal/mol and 1.88 ± 0.072 kcal/mol, respectively.
The matching figures for “SAGGDSISDIESVNIYSFNIPSNPYPYIIAELTIPDGRKIIAIYDPSTNTVTIIIEDDGKPRIITLPASAGG [r13_960_TrMRF]”: 2.49 ± 0.1 kcal/mol, 2.9 ± 0.12 kcal/mol and 2.7 ± 0.11 kcal/mol.
The matching figures for “SAGGDSVYIPGSISEAIDALRENPNKTVHIMSPDGYYIKITVKWDGDGDYKIDIKWQPPPPPPDPEDKSAGG [r13_56_TrROS]”: 2.23 ± 0.33 kcal/mol, 2.3 ± 0.21 kcal/mol and 2.23 ± 0.39 kcal/mol.

(Values after the supplement of paper PMC12764529.)
